Measurements from US20220048996A1.

What was measured:
[1] = biological target: hFcγR1 (R&D Systems 1257-FC-050/CF) (human) (UniProt P12314); test: SPR, antibody 100 nM on CD137-his chip co-injected with FcγR 500 nM
[2] = biological target: hFcγR2a (R&D Systems 1330-CD-050/CF) (human) (UniProt P12318); test: as above
[3] = biological target: hFcγR2b (R&D Systems 1460-CD-050/CF) (human) (UniProt P31994); test: as above
[4] = biological target: hFcγR3a (R&D Systems 4325-FC-050/CF) (human) (UniProt P08637); test: as above
[5] = biological target: mouse CD137 expressed on DO11.10 cells (DO11.10-mCD137) (mouse) (UniProt P20334); test: flow cytometry on DO11.10 cells expressing the target
[6] = biological target: human OX40 expressed on DO11.10 cells (DO11.10-hOX40) (human) (UniProt P43489); test: cell-based or functional assay
[7] = biological target: cynomolgus OX40 expressed on DO11.10 cells (DO11.10-cOX40) (cynomolgus); test: flow cytometry on DO11.10-cOX40
[8] = biological target: human OX40 expressed on DO11.10 cells (DO11.10-hOX40) (human) (UniProt P43489); test: flow cytometry on DO11.10-hOX40
[9] = biological target: hFcγR1 (R&D Systems 1257-FC-050/CF) (human) (UniProt P12314); test: SPR, antibody 100 nM on OX40-his chip co-injected with FcγR 500 nM
[10] = biological target: hFcγR2a (R&D Systems 1330-CD-050/CF) (human) (UniProt P12318); test: as above
[11] = biological target: hFcγR2b (R&D Systems 1460-CD-050/CF) (human) (UniProt P31994); test: as above
[12] = biological target: hFcγR3a (R&D Systems 4325-FC-050/CF) (human) (UniProt P08637); test: as above
[13] = biological target: mouse CD137 expressed on DO11.10 cells (DO11.10-mCD137) (mouse) (UniProt P20334); test: cell-based or functional assay
[14] = biological target: cynomolgus OX40 expressed on DO11.10 cells (DO11.10-cOX40) (cynomolgus); test: flow cytometry on DO11.10 cells expressing the target
[15] = biological target: human OX40 expressed on DO11.10 cells (DO11.10-hOX40) (human) (UniProt P43489); test: as above
hOX40-mFc (human) = test: SPR, antibody captured via anti-human Fab, dimeric antigen flowed, 1:1 fit
Chain of hOX40-mFc (human) (chain, as listed by the source limits assumed): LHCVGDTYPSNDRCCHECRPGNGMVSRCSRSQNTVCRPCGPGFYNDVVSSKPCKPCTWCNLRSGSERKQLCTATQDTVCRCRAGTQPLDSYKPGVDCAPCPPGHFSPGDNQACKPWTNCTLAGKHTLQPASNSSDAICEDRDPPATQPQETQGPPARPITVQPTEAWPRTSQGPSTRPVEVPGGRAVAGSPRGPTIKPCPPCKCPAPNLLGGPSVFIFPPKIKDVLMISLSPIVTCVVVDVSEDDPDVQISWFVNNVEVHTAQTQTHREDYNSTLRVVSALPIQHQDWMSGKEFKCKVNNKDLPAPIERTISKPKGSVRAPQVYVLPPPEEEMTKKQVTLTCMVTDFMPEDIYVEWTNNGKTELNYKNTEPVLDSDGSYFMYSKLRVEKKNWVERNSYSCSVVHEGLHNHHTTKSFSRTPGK

Chain of hFcγR2a (R&D Systems 1330-CD-050/CF) (human) (P12318 36-218 limits assumed): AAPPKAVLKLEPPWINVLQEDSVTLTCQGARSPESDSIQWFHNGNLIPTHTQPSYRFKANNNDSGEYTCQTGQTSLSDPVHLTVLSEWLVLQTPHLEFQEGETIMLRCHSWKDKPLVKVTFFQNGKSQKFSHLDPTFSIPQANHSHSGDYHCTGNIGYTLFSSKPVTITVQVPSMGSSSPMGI
Chain of mouse CD137 expressed on DO11.10 cells (DO11.10-mCD137) (mouse) (P20334 24-256): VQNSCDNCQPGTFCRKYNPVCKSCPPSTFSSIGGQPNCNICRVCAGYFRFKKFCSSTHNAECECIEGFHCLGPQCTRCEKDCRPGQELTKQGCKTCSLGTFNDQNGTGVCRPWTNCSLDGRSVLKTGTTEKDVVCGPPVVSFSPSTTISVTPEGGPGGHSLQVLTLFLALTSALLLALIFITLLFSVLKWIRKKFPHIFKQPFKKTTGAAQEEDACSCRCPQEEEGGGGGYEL
Chain of hFcγR1 (R&D Systems 1257-FC-050/CF) (human) (P12314 16-288 limits assumed): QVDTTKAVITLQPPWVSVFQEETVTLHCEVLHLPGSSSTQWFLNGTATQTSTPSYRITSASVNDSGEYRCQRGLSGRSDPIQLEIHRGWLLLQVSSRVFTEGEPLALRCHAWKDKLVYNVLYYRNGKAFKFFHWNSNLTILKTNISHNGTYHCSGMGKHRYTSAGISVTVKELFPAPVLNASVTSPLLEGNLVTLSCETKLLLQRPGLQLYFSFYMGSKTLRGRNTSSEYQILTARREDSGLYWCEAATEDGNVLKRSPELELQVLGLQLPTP
Chain of hFcγR3a (R&D Systems 4325-FC-050/CF) (human) (P08637 17-208 limits assumed): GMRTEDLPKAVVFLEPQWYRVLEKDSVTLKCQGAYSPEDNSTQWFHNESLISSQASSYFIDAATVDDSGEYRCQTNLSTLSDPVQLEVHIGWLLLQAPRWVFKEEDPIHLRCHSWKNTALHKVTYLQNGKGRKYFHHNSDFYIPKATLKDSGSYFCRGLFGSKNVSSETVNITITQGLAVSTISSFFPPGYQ
Chain of hFcγR2b (R&D Systems 1460-CD-050/CF) (human) (P31994 46-217 limits assumed): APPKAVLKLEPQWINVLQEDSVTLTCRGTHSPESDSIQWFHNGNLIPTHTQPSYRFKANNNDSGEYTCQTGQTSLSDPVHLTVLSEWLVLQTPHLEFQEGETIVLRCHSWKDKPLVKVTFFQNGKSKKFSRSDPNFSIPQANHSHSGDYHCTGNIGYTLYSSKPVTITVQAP
Chain of human OX40 expressed on DO11.10 cells (DO11.10-hOX40) (human) (P43489 29-277): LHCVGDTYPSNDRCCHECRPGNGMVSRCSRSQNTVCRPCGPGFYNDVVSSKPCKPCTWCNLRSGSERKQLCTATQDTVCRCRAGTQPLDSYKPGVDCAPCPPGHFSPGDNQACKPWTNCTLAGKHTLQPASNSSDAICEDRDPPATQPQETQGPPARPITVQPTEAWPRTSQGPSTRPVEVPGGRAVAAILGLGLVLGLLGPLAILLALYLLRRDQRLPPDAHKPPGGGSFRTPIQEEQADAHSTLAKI
Chain of cynomolgus OX40 expressed on DO11.10 cells (DO11.10-cOX40) (cynomolgus) (P43489 other isoform, or with tags, fused parts or gaps): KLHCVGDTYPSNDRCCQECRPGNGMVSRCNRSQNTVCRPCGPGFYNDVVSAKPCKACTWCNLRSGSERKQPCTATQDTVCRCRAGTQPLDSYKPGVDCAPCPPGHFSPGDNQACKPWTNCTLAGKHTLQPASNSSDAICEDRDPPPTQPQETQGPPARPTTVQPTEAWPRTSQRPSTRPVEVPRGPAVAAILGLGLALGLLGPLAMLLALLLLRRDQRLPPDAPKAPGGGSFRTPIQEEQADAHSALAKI

SEA assay (PBMC), hIL-2 max response, crosslinked [6] [pg/mL]	SEA assay (PBMC), hIL-2 release EC50, crosslinked [6] [nM]	pan-T cell activation assay, hIL-2 max response, crosslinked [6] [pg/mL]	pan-T cell activation assay, hIL-2 release EC50, crosslinked [6] [nM]	binding response at end of association phase of FcγR [9] [RU]	decrease of binding response at end of dissociation phase of FcγR [9] [RU]	binding response at end of association phase of FcγR [10] [RU]	binding response at end of association phase of FcγR [11] [RU]	binding response at end of association phase of FcγR [12] [RU]	Substance	further results
–	–	–	–	–	–	–	–	–	G4/20H4.9 (antibody)	binding response at end of association phase of FcγR [1]: 693 RU; decrease of binding response at end of dissociation phase of FcγR [1]: 57.1 RU; binding response at end of association phase of FcγR [2]: 156 RU; binding response at end of association phase of FcγR [3]: 164 RU; binding response at end of association phase of FcγR [4]: 113 RU
–	–	–	–	–	–	–	–	–	G1/Lob12.3 (antibody)	EC50 [5]: 0.121 nM
4270	0.0716	4130	0.13	292	203	64.5	60.9	67.3	G1AA/11D4 (antibody)	CD4+ T cell activation assay, hIL-2 max response, crosslinked [6]: 8820 pg/mL; CD4+ T cell activation assay, hIL-2 release EC50, crosslinked [6]: 0.0813 nM; CD8+ T cell activation assay, hIL-2 max response, crosslinked [6]: 388 pg/mL; CD8+ T cell activation assay, hIL-2 release EC50, crosslinked [6]: 0.0996 nM; EC50 [7]: 0.213 nM; EC50 [8]: 0.814 nM
–	–	–	–	–	–	–	–	–	G1AA/Lob12.3 (antibody)	mouse pan-T cell activation assay, mIL-2 max response, crosslinked [13]: 374 pg/mL; mouse pan-T cell activation assay, mIL-2 release EC50, crosslinked [13]: 1.18 nM
6610	0.13	6380	0.0513	370	46.4	123	89.7	143	G1/11D4 (antibody)	EC50 [14]: 0.0941 nM; EC50 [15]: 0.125 nM; Kd (hOX40-mFc (human)): 0.0337 nM
